From publication PMC13544220, “Glycemic and bodyweight effects of GIPR coding variation reflect differences in surface expression and intrinsic functional impairment” (Science Advances, 2026)

Columns and labels:
Assay type in all cases: cell-based, human
[1] = tested on: wild-type and variant SNAP-GIPR; test: Single-concentration GIP cAMP response by HTRF in INS-1 cells; conditions: Fig S3E, mean
Description: (§1) All variants were tested in parallel on each occasion to control for transfection efficiency differences between experiments.

[2] = tested on: wild-type and variant SNAP-GIPR; test: Constitutive and agonist-mediated internalization, reversible SNAP-tag labelling, INS-1 cells; set-up: key to Internalisation, GIP-only / Internalisation, Vehicle / Internalisation, +GIP: % internalization: residual fluorescence after Mesna vs pre-Mesna; conditions: Mean; for +GIP internalisation (100 nM) / GIP-specific internalisation (100 nM) / Constitutive internalisation (100 nM): Fig 4G; for +GIP internalisation (100 nM) / GIP-specific internalisation (100 nM): GIP 100 nM; for Internalisation, +GIP / Internalisation, GIP-only / Internalisation, Vehicle: Fig S4C, INS-1
How it was run: (§2)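 Surface SNAP-GIPR signal removable by Mesna was tracked by imaging before and 10 min after treatment in pH 8.6 TNE buffer. Internalization is the Mesna-resistant share of specific fluorescence.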

[3] = tested on: wild-type and variant SNAP-GIPR; test: Surface SNAP-GIPR expression (SNAP-tag labelling) in AD293 cells; conditions: for AD293 Surface: Fig S3E, mean; for Surface SNAP-GIPR expression: sheet Fig 1C;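 as to all read-outs here: scaled to the experimental average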
How it was run: (§3)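 Surface GIPR is quantified from wide-field images after labelling intact transfected cells with a membrane-impermeant SNAP probe at 500 nM for 10 min at room temperature. Specific signal, corrected for nontransfected cells, is normalized to the experiment-wide average or to wild-type.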

[4] = tested on: wild-type and variant SNAP-GIPR; test: Surface SNAP-GIPR expression (SNAP-tag labelling) in INS-1 cells; conditions: Fig 4G; Mean
How it was run: as §3

[5] = tested on: wild-type and variant SNAP-GIPR; test: cADDis cAMP imaging in AD293 cells, ensemble, expression-matched and per decile; conditions: Fig S3F, cADDis, mean
How it was run: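 Transient SNAP-GIPR plus cADDis BacMam in AD293; 24 h; SNAP-Surface AF647 500 nM, 10 min RT; wide-field 10X imaging at 37°C in KRBH/6 mM glucose/0.1% BSA. Cells failing IBMX/FSK response criteria excluded.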

[6] = tested on: wild-type and variant SNAP-GIPR; test: Constitutive and agonist-mediated internalization, reversible SNAP-tag labelling, AD293 cells; set-up: key to Internalisation, Vehicle / Internalisation, +GIP / Internalisation, GIP-only: % internalization: residual fluorescence after Mesna vs pre-Mesna; Surface expression: unit not given here; conditions: Mean; for +GIP internalisation (100 nM) / GIP-specific internalisation (100 nM) / Constitutive internalisation (100 nM) / Surface expression: Fig 4E; for +GIP internalisation (100 nM) / GIP-specific internalisation (100 nM): GIP 100 nM; for Internalisation, +GIP / Internalisation, GIP-only / Internalisation, Vehicle: Fig S4C, AD293
How it was run: as §2

[7] = tested on: wild-type and variant SNAP-GIPR; test: Single-concentration GIP cAMP response by HTRF in AD293 cells; conditions: Fig S3F, HTRF, mean;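 also: ratio to experiment-wide average response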
Description: as §1

[8] = column repeated, paired with cAMP 100 nM

B1: G438S (protein, UniProt P48546 22-466, looked up, variant G438S)
Gastric inhibitory …: RAETGSKGQTAGELYQRWERYRRECQETLAAAEPPSGLACNGSFDMYVCWDYAAPNATARASCPWYLPWHHHVAAGFVLRQCGSDGQWGLWRDHTQCENPEKNEAFLDQRLILERLQVMYTVGYSLSLATLLLALLILSLFRRLHCTRNYIHINLFTSFMLRAAAILSRDRLLPRPGPYLGDQALALWNQALAACRTAQIVTQYCVGANYTWLLVEGVYLHSLLVLVGGSEEGHFRYYLLLGWGAPALFVIPWVIVRYLYENTQCWERNEVKAIWWIIRTPILMTILINFLIFIRILGILLSKLRTRQMRCRDYRLRLARSTLTLVPLLGVHEVVFAPVTEEQARGALRFAKLGFEIFLSSFQGFLVSVLYCFINKEVQSEIRRGWHHCRLRRSLGEEQRQLPERAFRALPSGSGPSEVPTSRGLSSGTLPGPGNEASRELESYC
INS-1 cAMP (100 nM) [1]: 1.306 | +GIP internalisation (100 nM) [2]: 0.7615 | GIP-specific internalisation (100 nM) [2]: 0.2318 | Constitutive internalisation (100 nM) [2]: 0.5297 | Internalisation, +GIP [2]: 53.475 | Internalisation, GIP-only [2]: 16.2333 | Internalisation, Vehicle [2]: 37.2417 | AD293 Surface [3, 8]: 1.603 | AD293 Surface ([3]; paired with cAMP 100 pM): 1.603 | Surface SNAP-GIPR expression ([3]; replicate 1): 1.682 | Surface SNAP-GIPR expression ([3]; replicate 2): 1.688 | Surface SNAP-GIPR expression ([3]; replicate 3): 1.832 | Surface SNAP-GIPR expression ([3]; replicate 4): 2.161 | Surface SNAP-GIPR expression ([3]; replicate 5): 1.111 | Surface SNAP-GIPR expression ([3]; replicate 6): 1.49 | Surface SNAP-GIPR expression ([3]; replicate 7): 1.615 | Surface SNAP-GIPR expression ([3]; replicate 8): 1.417 | Surface SNAP-GIPR expression ([3]; replicate 9): 1.842 | Surface SNAP-GIPR expression ([3]; replicate 10): 1.526 | Surface SNAP-GIPR expression ([3]; replicate 11): 1.806 | Surface SNAP-GIPR expression ([3]; replicate 12): 1.746 | Surface SNAP-GIPR expression ([3]; replicate 13): 1.595 | Surface SNAP-GIPR expression ([3]; replicate 14): 2.152 | Surface SNAP-GIPR expression ([3]; replicate 15): 1.581 | Surface SNAP-GIPR expression ([3]; replicate 16): 1.661 | Surface SNAP-GIPR expression ([3]; replicate 17): 1.607 | Surface SNAP-GIPR expression ([3]; replicate 18): 1.471 | Surface SNAP-GIPR expression ([3]; replicate 19): 1.527 | Surface SNAP-GIPR expression ([3]; replicate 20): 1.649 | Surface SNAP-GIPR expression ([3]; replicate 21): 1.401 | Surface SNAP-GIPR expression ([3]; replicate 22): 1.64 | Surface SNAP-GIPR expression ([3]; replicate 23): 1.516 | Surface SNAP-GIPR expression ([3]; replicate 24): 1.737 | Surface SNAP-GIPR expression ([3]; replicate 25): 1.567 | Surface SNAP-GIPR expression ([3]; replicate 26): 1.448 | Surface SNAP-GIPR expression ([3]; replicate 27): 1.549 | Surface SNAP-GIPR expression ([3]; replicate 28): 1.925 | Surface SNAP-GIPR expression ([3]; replicate 29): 1.515 | Surface SNAP-GIPR expression ([3]; replicate 30): 1.373 | Surface SNAP-GIPR expression ([3]; replicate 31): 1.117 | Surface SNAP-GIPR expression ([3]; replicate 32): 1.576 | Surface SNAP-GIPR expression ([3]; replicate 33): 1.347 | Surface SNAP-GIPR expression ([3]; replicate 34): 1.595 | Surface SNAP-GIPR expression ([3]; replicate 35): 1.243 | Surface SNAP-GIPR expression ([3]; replicate 36): 1.381 | Surface SNAP-GIPR expression ([3]; replicate 37): 1.612 | Surface SNAP-GIPR expression ([3]; replicate 38): 1.594 | Surface SNAP-GIPR expression ([3]; replicate 39): 1.863 | Surface SNAP-GIPR expression ([3]; replicate 40): 1.797 | Surface SNAP-GIPR expression ([3]; replicate 41): 1.787 | Surface expression [4]: 1.361 | AD293 100 pM cADDis [5]: 35.9341 | AD293 100 nM cADDis [5]: 39.48 | +GIP internalisation (100 nM) [6]: 0.9894 | GIP-specific internalisation (100 nM) [6]: 0.334 | Constitutive internalisation (100 nM) [6]: 0.6554 | Surface expression [6]: 1.622 | Internalisation, +GIP [6]: 61.1161 | Internalisation, GIP-only [6]: 20.3657 | Internalisation, Vehicle [6]: 40.7504 | AD293 100 pM HTRF [7]: 1.746 | AD293 100 nM HTRF [7]: 1.655

B2: R300W (protein, UniProt P48546 22-466, looked up, variant R300W)
Gastric inhibitory …: RAETGSKGQTAGELYQRWERYRRECQETLAAAEPPSGLACNGSFDMYVCWDYAAPNATARASCPWYLPWHHHVAAGFVLRQCGSDGQWGLWRDHTQCENPEKNEAFLDQRLILERLQVMYTVGYSLSLATLLLALLILSLFRRLHCTRNYIHINLFTSFMLRAAAILSRDRLLPRPGPYLGDQALALWNQALAACRTAQIVTQYCVGANYTWLLVEGVYLHSLLVLVGGSEEGHFRYYLLLGWGAPALFVIPWVIVRYLYENTQCWERNEVKAIWWIIWTPILMTILINFLIFIRILGILLSKLRTRQMRCRDYRLRLARSTLTLVPLLGVHEVVFAPVTEEQARGALRFAKLGFEIFLSSFQGFLVSVLYCFINKEVQSEIRRGWHHCRLRRSLGEEQRQLPERAFRALPSGSGPGEVPTSRGLSSGTLPGPGNEASRELESYC
INS-1 cAMP (100 nM) [1]: 1.326 | +GIP internalisation (100 nM) [2]: 0.4496 | GIP-specific internalisation (100 nM) [2]: 0.1127 | Constitutive internalisation (100 nM) [2]: 0.3368 | Internalisation, +GIP [2]: 49.27 | Internalisation, GIP-only [2]: 12.1983 | Internalisation, Vehicle [2]: 37.0717 | AD293 Surface [3, 8]: 0.7271 | AD293 Surface ([3]; paired with cAMP 100 pM): 0.7271 | Surface SNAP-GIPR expression ([3]; replicate 1): 0.3062 | Surface SNAP-GIPR expression ([3]; replicate 2): 0.3328 | Surface SNAP-GIPR expression ([3]; replicate 3): 0.1592 | Surface SNAP-GIPR expression ([3]; replicate 4): 0.8304 | Surface SNAP-GIPR expression ([3]; replicate 5): 0.6683 | Surface SNAP-GIPR expression ([3]; replicate 6): 0.6889 | Surface SNAP-GIPR expression ([3]; replicate 7): 0.4744 | Surface SNAP-GIPR expression ([3]; replicate 8): 0.7417 | Surface SNAP-GIPR expression ([3]; replicate 9): 0.7319 | Surface SNAP-GIPR expression ([3]; replicate 10): 0.4888 | Surface SNAP-GIPR expression ([3]; replicate 11): 0.5692 | Surface SNAP-GIPR expression ([3]; replicate 12): 0.5524 | Surface SNAP-GIPR expression ([3]; replicate 13): 0.6029 | Surface SNAP-GIPR expression ([3]; replicate 14): 0.8734 | Surface SNAP-GIPR expression ([3]; replicate 15): 0.6318 | Surface SNAP-GIPR expression ([3]; replicate 16): 0.7838 | Surface SNAP-GIPR expression ([3]; replicate 17): 0.7645 | Surface SNAP-GIPR expression ([3]; replicate 18): 0.8288 | Surface SNAP-GIPR expression ([3]; replicate 19): 0.8256 | Surface SNAP-GIPR expression ([3]; replicate 20): 0.8307 | Surface SNAP-GIPR expression ([3]; replicate 21): 0.7929 | Surface SNAP-GIPR expression ([3]; replicate 22): 0.7293 | Surface SNAP-GIPR expression ([3]; replicate 23): 0.8041 | Surface SNAP-GIPR expression ([3]; replicate 24): 0.7665 | Surface SNAP-GIPR expression ([3]; replicate 25): 0.8609 | Surface SNAP-GIPR expression ([3]; replicate 26): 0.8382 | Surface SNAP-GIPR expression ([3]; replicate 27): 0.9176 | Surface SNAP-GIPR expression ([3]; replicate 28): 0.9055 | Surface SNAP-GIPR expression ([3]; replicate 29): 1.047 | Surface SNAP-GIPR expression ([3]; replicate 30): 0.4161 | Surface SNAP-GIPR expression ([3]; replicate 31): 0.3148 | Surface SNAP-GIPR expression ([3]; replicate 32): 0.4777 | Surface SNAP-GIPR expression ([3]; replicate 33): 0.3827 | Surface SNAP-GIPR expression ([3]; replicate 34): 0.923 | Surface SNAP-GIPR expression ([3]; replicate 35): 0.8683 | Surface SNAP-GIPR expression ([3]; replicate 36): 0.9333 | Surface SNAP-GIPR expression ([3]; replicate 37): 0.8174 | Surface SNAP-GIPR expression ([3]; replicate 38): 1.012 | Surface SNAP-GIPR expression ([3]; replicate 39): 1.271 | Surface SNAP-GIPR expression ([3]; replicate 40): 1.105 | Surface SNAP-GIPR expression ([3]; replicate 41): 0.9446 | Surface expression [4]: 0.9197 | AD293 100 pM cADDis [5]: 30.0031 | AD293 100 nM cADDis [5]: 37.61 | +GIP internalisation (100 nM) [6]: 0.5841 | GIP-specific internalisation (100 nM) [6]: 0.1667 | Constitutive internalisation (100 nM) [6]: 0.4174 | Surface expression [6]: 1.0064 | Internalisation, +GIP [6]: 57.8459 | Internalisation, GIP-only [6]: 16.6116 | Internalisation, Vehicle [6]: 41.2342 | AD293 100 pM HTRF [7]: 0.5327 | AD293 100 nM HTRF [7]: 1.632
